Five molecules from paper PMC6645366 can be followed below.

In data set [1] the target is T1, PUM2 RNA-binding domain (Homo sapiens, UniProt Q8TB72 706-1059). Kind of data set: EMSA. (In general: A gel shift assay detects complexes by their altered migration in electrophoresis.)
The target of data set [2] is T1, PUM2 RNA-binding domain. In words: competition EMSA.
Data set [3] concerns the target T1, PUM2 RNA-binding domain. In words: EMSA. This is another data set of the same source.

T1 sequence (Q8TB72 706-1059): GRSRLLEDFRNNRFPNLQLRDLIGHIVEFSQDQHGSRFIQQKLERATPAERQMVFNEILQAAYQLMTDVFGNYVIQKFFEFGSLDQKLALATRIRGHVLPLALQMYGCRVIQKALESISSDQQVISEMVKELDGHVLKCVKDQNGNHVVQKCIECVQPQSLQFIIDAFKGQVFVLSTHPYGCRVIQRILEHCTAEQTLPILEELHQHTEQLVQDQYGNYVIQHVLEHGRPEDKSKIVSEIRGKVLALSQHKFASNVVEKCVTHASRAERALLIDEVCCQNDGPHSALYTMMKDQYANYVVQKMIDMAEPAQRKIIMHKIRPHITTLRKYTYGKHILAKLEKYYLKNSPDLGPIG

On to CUUGUAUAUAG (ssRNA), for which the binding result with PUM2 RNA-binding domain [1] was “binds”.

As to UGUAGAUA (ssRNA) [8-mer 5G], the binding result with PUM2 RNA-binding domain [2] is “binds”.

Consider UGUAUAUA (ssRNA) [8-mer consensus], for which the binding result in the data set with PUM2 RNA-binding domain [2] is on record as “binds”.

For the molecule UGUAUAGA (ssRNA) [8-mer 7G], the binding result in the data set with PUM2 RNA-binding domain [2] is “binds”.

In the case of UCUCUUUGUAUAUAUCUCUU (ssRNA) [S1a RNA], the binding result with PUM2 RNA-binding domain [3] is reported as “binds”.
